Source: patent US10323078B2, “Isolated peptides and fragments thereof from fibrinogen for use as drugs, particularly in skin inflammatory diseases” (Universite Paris Descartes, priority 2015, dated 2019)
Ends that are not written are not given here.

How the values were obtained:
NHEK cells [1] = test: In vitro model of psoriasis: IL-8 release by keratinocytes stimulated by IL-17, OSM and TNF-α; format: cell-based, human; details: NHEK stimulated by IL-17, OSM and TNF-α (3 ng/ml each); 10 μM; 48 h
Description: (§1) FIG. 30: Inhibition of Il-8 production by keratinocytes stimulated by Il-17, OSM and TNF-α. NHEK cells were stimulated by a combination of Il-17, OSM and TNF-α (3 ng/ml each) and treated with JAK inhibitor at 10 μM (positive control) or Fg1.1.1 at concentrations ranging from 1.52 to 12.2 μM for 48 h. Measurement of IL-8 production was realized by ELISA and cytotoxicity was determined by the MTT assay as described in Materials and Methods Control experiments were done with untreated and unstimulated NHEK cells (cell alone) and with untreated NHEK stimulated by the combination of Il-17, OSM and TNF-α. Data are means±S.D. of three individual experiments. Statistical significance is indicated by * (P<0.05), ** (P<0.01), and *** (P<0.001), respectively.
(§2) For experiences using an in vitro model of psoriasis, cutaneous primary human keratinocytes (NHDK) were grown in culture medium for 24 hours. […]
(§3) Human IL-1ß, IL-8, IL-12, hBD-2, and TNF-α protein concentration was measured in the supernatants of stimulated cells using various ELISA Set kits (Ready-Set-Go kit from eBioscience for acne experiments, and for psoriasis experiments the Duo set IL-8 kit from R&D Systems and the BD-2 Human Development (hBD-2) from Peprotech) according to the manufacturer's instructions. […] The optical density was determined at 450 nm at a wavelength correction of 540 nm. […]

NHEK cells [2] = test: In vitro model of psoriasis: hBD-2 release by keratinocytes stimulated by IL-17, OSM and TNF-α; format: cell-based, human; details: NHEK stimulated by IL-17, OSM and TNF-α (5 ng/ml each); 10 μM; 72 h
Description: as §1, with “31:” for “30:”, “hBD-2” for “Il-8”, “(5” for “(3”, “72” for “48”, “hBD-2” for “IL-8”
as §2, §3

NHEK cells [3] = test: In vitro model of psoriasis: cytotoxicity by MTT assay; format: cell-based, human; details: all concentrations tested (1.52 to 12.2 μM)
Description: as §1, with “Statistical significance is indicated by * (P<0.05), ** (P<0.01), and *** (P<0.001), respectively.” left out
FIG. 31: Inhibition of hBD-2 production by keratinocytes stimulated by Il-17, OSM and TNF-α. […] Measurement of hBD-2 production was realized by ELISA and cytotoxicity was determined by the MTT assay as described in Materials and Methods Control experiments were done with untreated and unstimulated NHEK cells (cell alone) and with untreated NHEK stimulated by the combination of Il-17, OSM and TNF-α. […]
Crystal violet staining was used to determine the number of adherent cells in 96-well plates. […] After washing with PBS, 100% methanol was added, and the absorbance was measured spectrophotometrically at 540 nm on an ELISA multiwell reader. […] After thorough mixing, the absorbance was measured at 540 nm.

P. acnes RON strain = test: Adhesion assay, biotinylated P. acnes binding to monocytes (ThP1); format: cell-based, Propionibacterium acnes; details: monocytes (THP-1); bacteria pretreated 0.87 to 7 μM, 1 h at 37° C.
Description: FIG. 13: Dose-dependent inhibition of P. acnes RON binding to monocytes cell line. Biotinylated P. acnes RON strain at concentrations adjusted to 0.1 of absorbance at 600 nm was pre-treated with the recombinant peptides Fg1 and Fg2 and incubated 1 h at 37° C. with the human immortalized monocytes cell line ThP1. After removal of unbound bacteria, adhesion activity was detected at 410 nm. Data are means±S.D. of three separate experiments. Statistical significance is indicated by * (P<0.05), ** (P<0.01), *** (P<0.001), and **** (P<0.0001), respectively.
The bacterial suspension was adjusted at 600 nm to the desired concentration, pretreated with peptides Fg1 and Fg2 at the final concentration ranging from 0.87 to 7 μM for 1 h at 37° C. and deposited on the previously saturated cells with a solution of PBS SVF 2% for 2 h. After incubation for 1 h at 37° C., unbound bacteria are removed by 3 washes with PBS and fixed bacteria are detected by a streptavidin-peroxidase solution of 0.5 μg/ml for 30 min.
Whole P. acnes bacteria are labelled by biotinylation, pre-treated or not with the peptides and contacted with the various cell lines. After removal of the unfixed bacteria, the adhesion activity was measured spectrophotometrically by using the streptavidin-peroxidase conjugate and a chromogenic substrate. […]

Pfg = test: Western ligand blot with biotinylated Pfg; format: binding, Propionibacterium acnes; details: E. coli total protein after IPTG induction, 12.5% SDS-PAGE; biotinylated Pfg 0.1 μg/ml
Description: FIG. 5: Binding of P. acnes surface proteins to fibrinogen. (A) Various quantities of human fibrinogen (hFg) and bovine fibrinogen (bFg) were immobilized onto a 96-well polystyrene plate at 4° C. for 18 h and incubated with biotinylated Pfg at 0.1 μg/ml for 2 h at 23° C. Bovine serum albumin (BSA) was used as negative control. Bound material was detected by using the HRP-streptavidin conjugate. Peroxidase activity was measured by using the ABTS substrate at 405 nm. Proteins (10 μg per lane) were separated by 10% SDS-PAGE and detected by (B) Commassie blue staining, and transferred to nitrocellulose membrane and incubated with (C) HRP-streptavidine alone, and (D) biotinylated Pfg (0.1 μg/ml). Lanes 1: molecular weight standards. Lane 2: BSA. Lane 3: hFg. Lane 4: bFg.
FIG. 8: Cloning of Bß human fibrinogen fragments and binding with Pfg. (A) Cloning and expression of recombinant human Bß fibrinogen fragments Fg1, Fg2, Fg3 and Fg4. Fibrinogen fragments were obtained by RT-PCR and expression plasmids were constructed as described in Materials and Methods. (B) GST-fused proteins were expressed in E. coli, fractionated by 12.5% SDS-PAGE, and detected by Coomassie blue staining (B), and incubated with biotinylated Pfg (0.1 μg/ml) as described in Materials and Methods (C).
To characterize the interaction between P. acnes and ligands, we used biotinylated molecules in quantitative and qualitative assays. In a first set of assays, ECM ligands (fibrinogen, collagens I, IV, VI and VIII) were used as labelled proteins with biotin. In a second set of assays, P. acnes surface proteins (total extract and purified Pfg) were biotinylated. For quantitative analysis, unlabeled protein were diluted into 50 mM carbonate-bicarbonate, pH 9.6 buffer to yield a protein concentration ranging from 0.01 to 50 μg/ml, and then immobilized to 96-well polystyrene plates at 4° C. overnight. The wells were rinsed three times with 0.2 ml of PBS containing 0.05% Tween-20 (PBS-Tween). Biotinylated proteins (0.01 to 16 μg/ml in PBS-Tween) were added to the wells and incubated at room temperature for 1 h. The wells were rinsed three times with 0.2 ml of PBS-Tween. Peroxidase conjugated to streptavidin (0.5 μg/ml in PBS-Tween) was added and incubated for 30 min at room temperature. After washing, bound peroxidase was detected using the chromogenic peroxidase substrate ABTS. For qualitative analysis, unlabelled protein (10-75 μg per lane) were separated by SDS-PAGE and then transferred to nitrocellulose membranes (0.45 μm pore size), as described previously (Towbin, 1979). Membranes were then saturated overnight at 4° C. in PBS containing 5% BSA, 0.05% Tween-20 (PBT buffer). Binding activity was detected by incubating the membranes with 20 ml of PBT containing biotinylated proteins (0.1 μg/ml) for 2 h at room temperature followed by three washes with PBT. Bound biotinylated proteins were detected by incubating the membrane with peroxidase conjugated to streptavidin (0.5 μg/ml in PBT) for 1 h at room temperature. After washing, bound peroxidase activity was detected using 3,3′-diaminobenzidine in the presence of CoCl2 and H2O2 (Harlow and Lane, 1988).
Since it was shown that Pfg is recognized by fibrinogen, this ECM ligand was used to analyze the nature of this interaction. First it was analyzed the ability of fibrinogen to be recognized by purified Pfg (FIG. 5). Human and bovine Fg (hFg, bFg) were immobilized to polysterene plate and the binding activity of biotinylated Pfg was measured. […] It has been shown that fibrinogen is a glycoprotein containing both N- and O-linked glycans (Debeire 1985; Reid Townsend 1982; L'Hôte 1996). […] In parallel, deglycosylation was assessed by visualization of a shift in the mobility after electrophoresis separation and Coomassie blue staining (FIG. 6A, lanes 3 and 5) and also by using the RCA-I plant lectin able to recognize ß-linked galactosyl residues in terminal position (FIG. 6C) (Green, 1987). […]

[4] = test system: HaCaT, NHDK, ThP1, MRC5 and HDF cell lines; test: Cell viability (MTT) after treatment with Fg1 and Fg2 recombinant peptides; format: cell-based, human; details: all 5 cell lines; 0.22 to 7 mM for 18 h at 37° C.
Description: FIG. 10: Evaluation of cell viability after treatment with the Fg1 and Fg2 recombinant peptides. Human immortalized and primary keratinocyte cell lines HaCaT and NHDK; immortalized monocytes cell line ThP1, and immortalized and primary fibroblast cell lines MRCS and HDF were incubated with Fg1 and Fg2 recombinant peptides with concentrations ranging from 0.22 to 7 mM for 18 h at 37° C. Cell viability was assessed using the MTT assay as described in Materials and Methods.
Crystal violet staining was used to determine the number of adherent cells in 96-well plates. Briefly, after incubation with the test compound, the culture medium was discarded and the cells were incubated with a 0.05% crystal violet solution (Sigma) for 30 min at room temperature. After washing with PBS, 100% methanol was added, and the absorbance was measured spectrophotometrically at 540 nm on an ELISA multiwell reader. The MTT ([…]) assay was performed to test cell viability in 96-well plates. […] After thorough mixing, the absorbance was measured at 540 nm.
Whole P. acnes bacteria are labelled by biotinylation, pre-treated or not with the peptides and contacted with the various cell lines. After removal of the unfixed bacteria, the adhesion activity was measured spectrophotometrically by using the streptavidin-peroxidase conjugate and a chromogenic substrate.

[5] = test system: Pfg binding to fibrinogen; test: Inhibition of biotinylated Pfg binding to coated fibrinogen; design: species or system Propionibacterium acnes; details: biotinylated Pfg pretreated with increasing amount of recombinant peptide 1 h at 37° C.; fibrinogen coated 25 μg per well
Description: FIG. 9: Dose-dependent inhibition of biotinylated Pfg binding to fibrinogen by fibrinogen-derived peptide. Biotinylated PFg (0.4 mg) was pretreated with increasing amount of recombinant peptides Fg1 (♦), Fg2 (▪) or BSA as control (●) for 1 h at 37° C., and the binding activity to coated fibrinogen on polystyrene plate (25 μg per well) was evaluated. Results are expressed as mean±SD. Each point was done in quadruplet.
Since it has been shown that only Fg1 was able to recognize Pfg, biotinylated Pfg was pre-treated with various concentrations of purified Fg1 and tested its ability to recognize immobilized fibrinogen. Fg2 and BSA were used as neative controls (FIG. 9).

Jak Inhibitor I
Inhibition of IL-8 release (NHEK cells [1]): 67% | Inhibition of hBD-2 release (NHEK cells [2]): 80%

LLLCVFLVKSQGVND [Fg1.1.1, LLLCVFLVKSQGVND]
Effect on cell viability (MTT) (NHEK cells [3]): no effect on cell viability

B1: DAGGCLHADPDLGVLCPTGCQLQEALLQQERPIRNSVDELNNNVEAVSQTSSSSFQYMYLLKDLWQKRQKQVKDNENVVNEYSSELEKHQLYIDETVNSNIPTNLRVLRSILENLRSKIQKLESDVSAQMEYCRTPCTVSCNIPVVS (protein)
chain: DAGGCLHADPDLGVLCPTGCQLQEALLQQERPIRNSVDELNNNVEAVSQTSSSSFQYMYLLKDLWQKRQKQVKDNENVVNEYSSELEKHQLYIDETVNSNIPTNLRVLRSILENLRSKIQKLESDVSAQMEYCRTPCTVSCNIPVVS
modifications: fragment Fg2
notes: recombinant fragment of Bß sub-unit of human fibrinogen, used as negative control
Inhibition of adhesion of P. acnes RON strain (P. acnes RON strain): no anti-adhesive activity | Recognition of GST-fused recombinant Bß fibrinogen fragments by biotinylated Pfg (Pfg): only Fg1 was recognized | Cytotoxic activity (cell viability, MTT) [4]: no cytotoxic activity | Inhibition of the recognition between Pfg and human fibrinogen [5]: did not
